Measurements from patent publication US20260098102A1 (NATIONAL UNIVERSITY CORPORATION KOBE UNIVERSITY, published 2026).

What was measured:
human SIRPA_V2 protein [1] = biological target: T1, human SIRPA_V2 protein (human, UniProt P78324 31-504); experiment: blocking cell-based ELISA: peroxidase-labeled CD47-Fc (1 µg/mL) on 293α cells expressing SIRPA_V2
T1 construct: Expressed on 293α cells from pcDNA3.2 V5-DEST or pFLAG V5-DEST (FLAG-tagged) vectors; also called human SIRPA Variant 2; ECD variant (full-length, amino acids 1 to 504)
Method: After the culture supernatant of the human SIRPA_V1 or V2 expression vector-introduced 293 cells prepared in Example 9)-1 was removed, 50 μL per well of various anti-SIRPA antibodies or various control Human IgG diluted with 5% FBS-containing PBS to a final concentration of 0 to 10,000 ng/ml was added to each of pcDNA3.2 V5-DEST-SIRPA_V1 or V2-introduced 293α cells, immediately followed by addition of 50 µL per well of peroxidase-labeled CD47-Fc prepared with 5% FBS-containing PBS at 1 μg/mL, and the mixture was allowed to stand at 4° C. for one hour. Thereafter, the SIRPA-CD47 binding inhibitory activity was evaluated in the same manner as in 1)-6-3.
Target sequence in this assay (P78324 other isoform, or with tags, fused parts or gaps limits assumed): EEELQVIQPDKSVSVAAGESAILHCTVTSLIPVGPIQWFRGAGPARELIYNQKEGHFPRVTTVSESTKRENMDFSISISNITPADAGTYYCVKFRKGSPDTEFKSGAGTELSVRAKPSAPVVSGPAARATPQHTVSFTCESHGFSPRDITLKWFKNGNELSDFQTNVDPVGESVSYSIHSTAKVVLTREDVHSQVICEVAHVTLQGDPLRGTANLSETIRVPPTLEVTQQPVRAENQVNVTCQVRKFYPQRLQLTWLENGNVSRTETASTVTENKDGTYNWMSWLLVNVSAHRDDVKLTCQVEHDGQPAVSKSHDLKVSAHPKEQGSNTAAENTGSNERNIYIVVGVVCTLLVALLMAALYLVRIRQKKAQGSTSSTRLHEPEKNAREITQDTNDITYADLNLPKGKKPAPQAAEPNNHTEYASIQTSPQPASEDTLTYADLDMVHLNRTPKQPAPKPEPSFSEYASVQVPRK

SIRPA_V1_IgV = biological target: T2, SIRPA_V1_IgV (human, UniProt P78324 31-149); experiment: SPR Biacore T200, antibody captured, SIRPA_V1_IgV as analyte, 1:1 model
T2 construct: Secreted recombinant protein from FreeStyle 293F cells
T2 sequence (P78324 other isoform, or with tags, fused parts or gaps limits assumed): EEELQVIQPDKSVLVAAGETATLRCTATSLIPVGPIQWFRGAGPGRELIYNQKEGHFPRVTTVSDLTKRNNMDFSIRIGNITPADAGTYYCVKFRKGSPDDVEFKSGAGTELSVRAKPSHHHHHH
Method: The dissociation constants of the cD13, cF44, and cF63 prepared in Example 4 against the human SIRPA_V1_IgV prepared in Example 1 were determined by a capture method comprising capturing a human chimeric antibody as a ligand and measuring an antigen as an analyte, using Biacore T200 (GE Healthcare Bioscience Corp.). HBS-EP+ (GE Healthcare Bioscience Corp.) was used as a running buffer, and CM5 (GE Healthcare Bioscience Corp.) was used as a sensor chip. In an amount of 1 μg/mL human chimeric antibody was added onto a chip at a rate of 10 μL/min for 60 seconds, a serially diluted solution of human SIRPA protein as an antigen (0.5 to 8 μg/mL) was added at a flow rate of 30 μL/min for 120 seconds, and the dissociation phase continued to be monitored for 600 seconds. As a regenerant, 3 M magnesium chloride (GE Healthcare Bioscience Corp.) was added at a flow rate of 20 μL/min for 30 seconds. For data analysis, the binding rate constant (ka), dissociation rate constant (kd), and dissociation constant (KD; KD=kd/ka) were calculated using a 1:1 binding model.

human SIRPA_V1 protein = biological target: T3, human SIRPA_V1 protein (human, UniProt P78324 31-504); experiment: cell-based ELISA on 293α cells expressing FLAG-tagged SIRPA_V1; Abs 490 normalized to FLAG tag
T3 construct: Expressed on 293α cells from pcDNA3.2 V5-DEST or pFLAG V5-DEST (FLAG-tagged) vectors; also called human SIRPA Variant 1; hSIRPA V1
T3 sequence (P78324 31-504 limits assumed): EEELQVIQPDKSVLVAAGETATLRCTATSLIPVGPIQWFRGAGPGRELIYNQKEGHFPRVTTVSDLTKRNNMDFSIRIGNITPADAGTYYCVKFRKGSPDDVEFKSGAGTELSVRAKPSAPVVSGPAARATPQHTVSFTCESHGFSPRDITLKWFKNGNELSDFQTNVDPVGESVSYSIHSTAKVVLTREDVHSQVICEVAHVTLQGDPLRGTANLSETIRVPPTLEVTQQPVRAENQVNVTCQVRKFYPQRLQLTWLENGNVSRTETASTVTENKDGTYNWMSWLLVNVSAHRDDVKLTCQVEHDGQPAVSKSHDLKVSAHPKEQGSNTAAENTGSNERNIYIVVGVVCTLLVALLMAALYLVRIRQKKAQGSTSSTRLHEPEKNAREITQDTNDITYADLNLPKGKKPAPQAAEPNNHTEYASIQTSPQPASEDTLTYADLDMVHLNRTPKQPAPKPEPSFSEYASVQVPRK
Method: (§1) The 293α cells [described in Example 1)-6] were prepared in a 10% FBS-containing DMEM medium to 5×10⁵ cells/mL. pFLAG V5-DEST-SIRPA_V1, pFLAG V5-DEST-SIRPA_V2, or pFLAG V5-DEST was introduced into the cells using Lipofectamine LTX (Invitrogen), followed by addition of 100 μL per well to a 96-well plate (Corning Incorporated), and cells were cultured overnight in the 10% FBS-containing DMEM medium at 37° C. under a 5% CO₂ condition. The obtained introduced cells were used for cell-based ELISA in a state that they adhered to each other. After the culture supernatant was removed, 50 μL per well of the cD13 (IgG2 and IgG4pf), cF44 (IgG1, IgG2, IgG4p, and IgG4pf), and cF63 (IgG2 and IgG4pf) antibodies prepared in Examples 3 and 4 were added to each of pFLAG V5-DEST-SIRPA_V1, pFLAG V5-DEST-SIRPA_V2, or pFLAG V5-DEST-introduced cells at final concentrations of 0 to 10,000 ng/mL, and the mixture was allowed to stand at 4° C. for one hour. Further, 50 μL per well of anti-FLAG M2 antibody (SIGMA) diluted with 5% FBS-containing PBS to a final concentration of 10,000 ng/mL was added to a well for detecting expression of each SIRPA construct, and the mixture was allowed to stand at 4° C. for one hour. The cells in the well were washed once with 5% FBS-containing PBS, followed by addition of Peroxidase AffiniPure F(ab′)₂ Fragment Goat Anti-Human IgG, Fcγ Fragment Specific (Jackson ImmunoResearch) diluted 1000-fold with 5% FBS-containing PBS, and the mixture was allowed to stand at 4° C. for one hour. The cells in the well were washed five times with 5% FBS-containing PBS, followed by addition of 100 μL per well of an OPD coloration solution [o-phenylenediamine dihydrochloride (Wako Pure Chemical Industries, Ltd.) and H₂O₂ were dissolved in an OPD solution (0.05 M trisodium citrate, 0.1 M disodium hydrogen phosphate dodecahydrate, pH 4.5) at 0.4 mg/mL and 0.6% (v/v), respectively]. A coloration reaction was performed with stirring occasionally, 100 μL per well of 1 M HCl was added to terminate the coloration reaction, and then absorbance at 490 nm was measured with a plate reader ARVO (PerkinElmer Inc.). Binding of the human chimeric anti-human SIRPA antibodies to each construct was standardized by expression of the FLAG tag.

human SIRPA_V2 protein [2] = biological target: T1, human SIRPA_V2 protein; experiment: cell-based ELISA on 293α cells expressing FLAG-tagged SIRPA_V2; Abs 490 normalized to FLAG tag
Method: as §1

human SIRPA_V2 protein [3] = biological target: T1, human SIRPA_V2 protein; experiment: blocking cell-based ELISA: peroxidase-labeled CD47-Fc (10,000 ng/mL) on 293α cells expressing SIRPA_V2; y axis = CD47-Fc signal in % of no antibody [ii]

IC50 (human SIRPA_V2 protein [1]) | Kd (SIRPA_V1_IgV) | EC50 (read off the curve) (human SIRPA_V1 protein) | EC50 (read off the curve) (human SIRPA_V2 protein [2]) | IC50 (read off the curve) (human SIRPA_V2 protein [3]) | Binder
1.3 µg/mL |  |  |  |  | humanized anti-SIRPA antibody hD13_H1L3 (antibody, human IgG4 S228P, kappa, F234A L235A, V domains shown, hH1 heavy chain (IgG4proFALA) and hL3 kappa light chain; also called hD13_HIL3; HIL3 antibody) VH: QVQLVESGGGVVQPGRSLRLSCAASGFTFSDYGMIWVRQAPGKGLEWVASISSSSSYIYYADSVKGRFTISRDNSKNRLYLQMNSLRAEDTAVYYCARRYYGFNYPFDYWGQGTMVTVSS VL: DTQLTQSPSSLSASVGQRVTITCGASKSVRTYMHWYQQKPGKQPKLLIYSASNLEAGVPSRFSGSGSGTDFTLTISSLQPEDFATYYCQQSNEPPYTFGQGTKLEIKR
 | 0.0811 nM | ~0.08 µg/mL | ~0.05 µg/mL | ~0.3 µg/mL | human chimeric anti-SIRPA antibody cD13 (antibody, human IgG4 S228P, kappa, F234A L235A, V domains shown, Human IgG4proFALA heavy chain, human kappa light chain; also called cD13 (IgG4pf); human chimeric antibody D13) VH: EVQLVESGGGLVQPGRSLKLSCLASGFTFSDYGMIWVRQAPGKGLEWVASISSSSSYIYYADTVKGRFTISRENAKNTLFLHMTSLRSEDTALYYCARRYYGFNYPFDYWGQGVMVTVSS VL: DTVLTQSPALAVSLGQRVTISCGASKSVRTYMHWYQQKSGQQPKLLIYSASNLEAGVPSRFSGSGSGTDFTLTIDPVEADDIANYYCQQSNEPPYTFGAGTKLELKR
